Measured values as given in patent US20040132045A1 (MERCK, published 2004).
Values joined by “and” are separate entries in the source; they are usually repeats but may differ in a detail not shown here. Equal entries are not always repeated. Bridges are numbered along the chain shown (N, C = ends). Where no end group is shown, it is not given here.

Legend:
[1] = target: rhesus monkey MCH-2R (melanin-concentrating hormone type 2 receptor) (rhesus monkey) (UniProt Q8MJ88); experiment: radioligand binding to HEK293T cells expressing rhesus MCH-2R in the presence of 1 uM cold [Phe13, Tyr19]-MCH
Sequence of rhesus monkey MCH-2R (melanin-concentrating hormone type 2 receptor) (rhesus monkey) (Q8MJ88 whole entry): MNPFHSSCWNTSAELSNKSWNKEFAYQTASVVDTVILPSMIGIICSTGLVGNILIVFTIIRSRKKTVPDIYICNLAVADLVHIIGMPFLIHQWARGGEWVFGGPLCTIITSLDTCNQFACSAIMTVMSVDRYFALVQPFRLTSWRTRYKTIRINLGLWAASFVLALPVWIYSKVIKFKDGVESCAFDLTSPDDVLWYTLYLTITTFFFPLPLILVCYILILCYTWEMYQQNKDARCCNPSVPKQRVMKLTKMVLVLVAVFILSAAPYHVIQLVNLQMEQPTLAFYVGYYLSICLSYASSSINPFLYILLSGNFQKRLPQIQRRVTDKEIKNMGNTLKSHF

[2] = target: rhesus monkey MCH-2R (melanin-concentrating hormone type 2 receptor) (rhesus monkey) (UniProt Q8MJ88); experiment: radioligand binding to HEK293T cells expressing rhesus MCH-2R, cell-bound radioactivity
[3] = target: T1, rhesus monkey MCH-2R (melanin-concentrating hormone type 2 receptor) (rhesus monkey, UniProt Q8MJ88 1-340); experiment: displacement of 100 pM [125I]-[Phe13, Tyr19]-MCH from HEK293T cells expressing rhesus MCH-2R, filtration
T1 construct: also called rhesus MCH-2R
T1 sequence (Q8MJ88 whole entry): as above
Experimental: The remaining radio activity on the filter was quantitated using a TopCount HTS (Packard instrument) with a Microscint 0 scintillation cocktail (Packard instrument). […] Data were analyzed using GraphPad Prism Version 3.0.

[4] = target: T1, rhesus monkey MCH-2R …; experiment: cell-based or functional assay
ferret MCH-2R [5] = target: T2, ferret MCH-2R (ferret, UniProt Q969V1 1-340 (human entry)); experiment: radioligand competition binding on membranes of COS-7 cells transfected with ferret MCH-2R; radioligand not named
T2 construct: Function was measured in HEK-293 aequorin cells
T2 chain: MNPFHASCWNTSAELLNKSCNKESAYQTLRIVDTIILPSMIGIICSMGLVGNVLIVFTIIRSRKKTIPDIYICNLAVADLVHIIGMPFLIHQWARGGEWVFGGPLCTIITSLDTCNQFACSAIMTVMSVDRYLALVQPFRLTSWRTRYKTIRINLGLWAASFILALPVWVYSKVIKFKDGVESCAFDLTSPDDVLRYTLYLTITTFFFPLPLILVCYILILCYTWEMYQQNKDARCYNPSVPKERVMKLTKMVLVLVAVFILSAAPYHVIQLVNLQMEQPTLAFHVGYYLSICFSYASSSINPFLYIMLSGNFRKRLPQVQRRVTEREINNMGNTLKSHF
Experimental: (§1) (Strader, et al., 1987. Proc. Natl. Acad. Sci. USA 84, 4384-4388). Cells were harvested after 60-72 hours. Membranes were prepared from transient and stable transfectants by hypotonic lysis, frozen in liquid nitrogen, and stored at −80° C. (MacNeil, et al., 1994. Biochem. Biophys. Res. Commun. 198, 328-334.)
(§2) A binding assay was set up in 96 well plates. Total volume per binding assay point was 200 μL. […] Dose response curves were from 10 μM in 5 fold or 3-fold dilution series for 11 points. The mixture was shaken for 5 minutes on a platform shaker, and incubated at room temperature for 1 hour. Filter plates were presoaked in 1% PEI. The binding reaction was harvested onto filters using Packard Filtermate harvester (Meriden, Conn.). The filters were then washed in 50 mM Tris pH 7.4, 10 mM MgCl₂, 2 mM EDTA, 0.04% Tween 20, 6-8 times per plate. The plates were dried for 20 minutes at 55° C. or overnight at room temperature. 30 μL microscintillant was added per well and counted for 1.5-3 minutes in inverted format on Packard TopCount.

human MCH-2R [6] = target: T3, human MCH-2R (human, UniProt Q969V1 1-340); experiment: radioligand competition binding on membranes of COS-7 cells transfected with human MCH-2R; radioligand not named
T3 construct: Function was measured in HEK-293 aequorin cells
T3 sequence (Q969V1 whole entry): as the sequence (Q8MJ88 whole entry) above, with S6A, S16L, I84V, S143R, V163I, I170V, A258V, V324A, D326E, K330N counted along it
Experimental: as §1, §2

human MCH-2R [7] = target: T3, human MCH-2R; experiment: cell-based or functional assay
ferret MCH-2R [8] = target: T2, ferret MCH-2R; experiment: cell-based or functional assay

For “[^125I]-[Phe^13, Tyr^19]-MCH (from UniProt P20382 147-165) (peptide)”, the Nonspecific binding (cpm) [1] was 598 cpm and 567 cpm and 717 cpm and the Total binding (cpm) [2] was 18000 cpm (2×) and 18700 cpm.

For DFDMLRCMLGRVFRPCWQY (ends and bridges not checked; cysteine pairing not given here) [[Phe^13, Tyr^19]-MCH], the IC50 [3] was 3.8 nM and the “increase in intracellular calcium levels (fura-2), EC50” value [4] was 49 nM.

B1: Melanin-concentrating hormone (MCH) (peptide, UniProt P20382 147-165, looked up)
peptide: DFDMLRCMLGRVYRPCWQV
modifications: disulfide 7-16 (inferred)
notes: mature; also called cold MCH; MCH unlabeled peptide
For B1, the IC50 (ferret MCH-2R [5]) was 55 nM, the IC50 (human MCH-2R [6]) was 10 nM and the “Function (EC50, nM), aequorin bioluminescence assay” value (human MCH-2R [7]) was 43 nM. The “Function (EC50, nM), aequorin bioluminescence assay” value (ferret MCH-2R [8]) was 69 nM and the “increase in intracellular calcium levels (fura-2), EC50” value [4] was 24 nM.
